This note sets out measurements from patent US20240182547A1 (MOGAM INSTITUTE FOR BIOMEDICAL RESEARCH, published 2024).

As usually defined, the Kd is the concentration at which binding is half-saturated. Read a high Kd as lower affinity.

B1: 4H1 (antibody, V domains shown)
VH: EVQLVESGGGLVKPGGSLRLSCAGSGFTFSSYTMHWVRQAPGKGLEWVSSITGGSSYVDYSASVKGRFTISRDNAQSSLYLQMNSLRAEDTAVYYCARDDYGSGSYSNWFDPWGQGTLVTVSS
VL: QSVLTQPPSVSGAPGQRVTISCTGSSSNIGAGYDVHWYQQVPGTAPKLLIFGSTNRPSGVPDRFSGSKSGASASLAITGLQADDEADYYCQPYDRSLSHVFGTGTKVTVLR
notes: IgG made in Expi293; also called #3
B2: 4E3 (antibody, V domains shown)
VH: EVQLVESGGGLVKPGGSLRLSCAGSGFTFSSYTMHWVRQAPGKGLEWVSSITGGSSYVDYSASVKGRFTISRDNAQSSLYLQMNSLRAEDTAVYYCARDDYGSGSYSNWFDPWGQGTLVTVSS
VL: QSVLTQPPSVSGAPGQRVTISCTGSSSNIGAGYDVHWYQQVPGTAPKLLIFGSTNRPSGVPDRFSGSKSGASASLAITGLQADDEADYYCQSYDRSLSHVFGTGTKVTVLG
notes: IgG made in Expi293
B3: #33m (antibody, V domains shown)
VH: EVQLVESGGGLVKPGGSLRLSCAASGFRLSSYGMNWVRQAPGKGLEWVSSISASSSFINYADSVRDRFTISRDNAKNSLYLQMNSLRAEDTAVYYCARDDYGSGSYSNWFDPWGQGTLVTVSS
VL: QSVLTQPPSVSGAPGQRVTISCTGNSSNLGAGYDVHWYQQLPGRAPKLLIFANTNRPSGVPDRFSGSKSGASASLAITSLQADDEADYYCQSYDRSLSHVFGTGTKVTVLG
notes: Germline-edited (m) form of 4G1, heavy chain edited; IgG; also called 4G1 (modified)
B4: 4G1 (antibody, V domains shown)
VH: QVTLKESGGGLVKPGGSLRLSCAASGFRLSSYGMNWVRQAPGKGLEWVSSISASSSFINYADSVRDRFTISRDNAKNSLYLQMNSLRAEDTAVYYCARDDYGSGSYSNWFDPWGQGTLVTVSS
VL: QSVLTQPPSVSGAPGQRVTISCTGNSSNLGAGYDVHWYQQLPGRAPKLLIFANTNRPSGVPDRFSGSKSGASASLAITSLQADDEADYYCQSYDRSLSHVFGTGTKVTVLG
notes: IgG made in Expi293; also called #33; 33
B5: 4H5 (antibody, V domains shown)
VH: EVQLVESGGGLVKPGGSLRLSCAGSGFTFSSYTMHWVRQAPGKGLEWVSSITGGSSYVDYSASVKGRFTISRDNAQSSLYLQMNSLRAEDTAVYYCARDDYGSGSYSNWFDPWGQGTLVTVSS
VL: QSVLTQPPSVSGAPGQRVTISCTGSSSNIGAGYDVHWYQQLPGAAPRLLMFGNSNRPSGVPDRFSGSKSGTSASLAITGLQAEDEADYYCQSYDRSLSHVFGTGTKVTVLG
notes: IgG made in Expi293
B6: 1E6 (antibody, V domains shown)
VH: EVQLVESGGGLVKPGGSLRLSCAASGFTFTSYRMHWVRQAPGKGLEWVSSITGGGNYIEYADSVKGRFTISRDNAKNSLDLQMNSLRAEDTAIYYCARDMYGLGSYYSPNYFDPWGQGTLVTVSS
VL: QSVLTQPPSVSGAPGQRVTISCTGSSSNIGAGYDVHWYQQLPGRAPKLLIFANTNRPSGVPDRFSGSKSGASASLAITGLQADDEADYYCQSYDRSLSHVFGTGTKVTVLG
notes: IgG made in Expi293; also called #22; 22
B7: 2G1 (antibody, V domains shown)
VH: QVTLKESGGGLVKPGGSLRLSCAASGFTFTSYRMHWVRQAPGKGLEWVSSITGGGNYIEYADSVKGRFTISRDNAKNSLDLQMNSLRAEDTAIYYCARDMYGLGSYYSPNYFDPWGQGTLVTVSS
VL: QSVLTQPPSVSGAPGQRVTISCTGSSSNIGAGYDVHWYQQLPGTAPKLLIFGSTNRPSGVPDRFSGSKSGASASLAITGLQTEDEADYYCQSYDRSLSHVFGTGTKVTVLG
notes: IgG made in Expi293; also called #21; 21
B8: 2H8 (antibody, V domains shown)
VH: EVQLVESGGGLAKPGGSLRLSCAASGFTFTSYRMHWVRQAPGKGLEWVSSITGGGNYIEYADSVKGRFTISRDNAKNSLDLQMNSLRAEDTAIYYCARDMYGLGSYYSPNYFDPWGQGTLVTVSS
VL: QSVLTQPPSVSGAPGQRVTISCTGSSSNIGAGYDVHWYQQLPGAAPRLLMFGNSNRPSGVPDRFSGSKSGTSASLAITGLQAEDEADYYCQSYDRSLSHVFGTGTKVTVLG
notes: IgG made in Expi293; also called #26; 26
B9: 13C2 (antibody, V domains shown)
VH: EVQLVESGGGLVKPGGSLRLSCAASGFTFTSYRMHWVRQAPGKGLEWVSSITGGGNYIEYADSVKGRFTISRDNAKNSLDLQMNSLRAEDTAIYYCARDMYGLGSYYSPNYFDPWGQGTLVTVSS
VL: QSVLTQPPSVSGAPGQRVTISCTGSSSNIGAGYDVHWYQQVPGTAPKLLIFGSTDRPSGVPDRFSGSKSGNTASLTISGLQAEDEADYYCQSYDRSLSHVFGTGTKVTVLG
notes: IgG made in Expi293; also called #25; 25
B10: 12F7 (antibody, V domains shown)
VH: QMQLVQSGPEVKKPGSSVKVSCKASGYTFTDYGLSWVRQAPGHGLEWMGWITAYNGDTNYAQKFQDRLSVTTDISTSTAYMELRSLKSDDTAVYYCARHVFCSGDGCYSGLGSWGQGTLVTVSS
VL: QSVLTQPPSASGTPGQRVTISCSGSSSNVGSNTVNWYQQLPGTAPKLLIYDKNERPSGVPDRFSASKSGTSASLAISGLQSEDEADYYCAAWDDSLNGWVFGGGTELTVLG
notes: IgG made in Expi293; also called #38; 38
B11: 12C10 (antibody, V domains shown)
VH: QVQLVQSGSEVKKPGASVKVSCKASGYTFTDYGLSWVRQAPGHGLEWMGWITAYNGDTNYAQKFQDRLSVTTDISTSTAYMELRSLKSDDTAVYYCARHVFCSGDGCYSGLGSWGQGTLVTVSS
VL: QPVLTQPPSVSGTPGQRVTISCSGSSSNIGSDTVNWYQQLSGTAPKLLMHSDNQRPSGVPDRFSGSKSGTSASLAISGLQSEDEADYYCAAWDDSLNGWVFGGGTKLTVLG
notes: IgG made in Expi293; also called #42; 42
B12: 2G3 (antibody, V domains shown)
VH: QVQLVQSGAEVKKPGASVKVSCKASGYTFTDYGLSWVRQAPGHGLEWMGWITAYNGDTNYAQKFQDRLSVTTDISTSTAYMELRSLKSDDTAVYYCARHVFCSGDGCYSGLGSWGQGTLVTVSS
VL: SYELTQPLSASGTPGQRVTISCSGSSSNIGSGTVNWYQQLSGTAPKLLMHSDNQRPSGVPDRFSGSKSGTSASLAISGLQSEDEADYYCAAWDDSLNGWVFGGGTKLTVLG
notes: IgG made in Expi293; also called #41; 41
B13: 4H11 (antibody, V domains shown)
VH: QVQLVQSGAEVKKPGASVKVSCKASGYTFTDYGLSWVRQAPGHGLEWMGWITAYNGDTNYAQKFQDRLSVTTDISTSTAYMELRSLKSDDTAVYYCARHVFCSGDGCYSGLGSWGQGTLVTVSS
VL: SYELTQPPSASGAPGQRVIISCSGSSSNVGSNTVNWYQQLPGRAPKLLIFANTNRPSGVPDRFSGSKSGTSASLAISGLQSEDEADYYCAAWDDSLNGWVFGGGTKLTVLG
notes: IgG made in Expi293; also called #40; 40
B14: #42m (antibody, V domains shown)
VH: QVQLVQSGSEVKKPGASVKVSCKASGYTFTDYGLSWVRQAPGHGLEWMGWITAYNGDTNYAQKFQDRLSVTTDISTSTAYMELRSLKSDDTAVYYCARHVFCSGDGCYSGLGSWGQGTLVTVSS
VL: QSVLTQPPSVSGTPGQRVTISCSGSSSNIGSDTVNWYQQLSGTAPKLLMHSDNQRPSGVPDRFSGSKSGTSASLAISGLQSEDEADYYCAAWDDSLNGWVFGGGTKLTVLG
notes: Germline-edited (m) form of 12C10, light chain edited; IgG; also called 12C10 (modified)
B15: 3E8 (antibody, V domains shown)
VH: QVQLVQSGSEVKKPGASVKVSCKASGYTFTDYGLSWVRQAPGHGLEWMGWITAYNGDTNYAQKFQDRLSVTTDISTSTAYMELRSLKSDDTAVYYCARHVFCSGDGCYSGLGSWGQGTLVTVSS
VL: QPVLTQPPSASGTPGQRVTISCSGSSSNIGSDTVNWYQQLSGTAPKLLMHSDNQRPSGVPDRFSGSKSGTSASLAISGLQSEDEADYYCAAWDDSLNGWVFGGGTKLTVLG
notes: IgG made in Expi293; also called #43; 43
B16: #41m (antibody, V domains shown)
VH: QVQLVQSGAEVKKPGASVKVSCKASGYTFTDYGLSWVRQAPGHGLEWMGWITAYNGDTNYAQKFQDRLSVTTDISTSTAYMELRSLKSDDTAVYYCARHVFCSGDGCYSGLGSWGQGTLVTVSS
VL: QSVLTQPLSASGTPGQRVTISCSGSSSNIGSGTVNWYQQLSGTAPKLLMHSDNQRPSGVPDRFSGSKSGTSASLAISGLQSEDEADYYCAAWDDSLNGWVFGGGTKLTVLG
notes: Germline-edited (m) form of 2G3, light chain edited; IgG; also called 2G3 (modified)
B17: #40m (antibody, V domains shown)
VH: QVQLVQSGAEVKKPGASVKVSCKASGYTFTDYGLSWVRQAPGHGLEWMGWITAYNGDTNYAQKFQDRLSVTTDISTSTAYMELRSLKSDDTAVYYCARHVFCSGDGCYSGLGSWGQGTLVTVSS
VL: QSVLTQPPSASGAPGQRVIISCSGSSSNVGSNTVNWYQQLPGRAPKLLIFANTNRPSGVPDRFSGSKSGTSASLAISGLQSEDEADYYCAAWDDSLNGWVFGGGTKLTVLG
notes: Germline-edited (m) form of 4H11, light chain edited; IgG; also called 4H11 (modified)
B18: #38m (antibody, V domains shown)
VH: QVQLVQSGAEVKKPGASVKVSCKASGYTFTDYGLSWVRQAPGHGLEWMGWITAYNGDTNYAQKFQDRLSVTTDISTSTAYMELRSLKSDDTAVYYCARHVFCSGDGCYSGLGSWGQGTLVTVSS
VL: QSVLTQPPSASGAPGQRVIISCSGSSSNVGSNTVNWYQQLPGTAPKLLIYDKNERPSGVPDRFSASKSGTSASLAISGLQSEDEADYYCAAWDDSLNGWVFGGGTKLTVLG
notes: Germline-edited (m) form of 12F7, heavy and light chain edited; IgG; also called 12F7 (modified)
B19: 2H11 (antibody, V domains shown)
VH: QVQLVQSGGGLVKPGGSLRLSCAASGFTFTSYRMHWVRQAPGKGLEWVSSITGGGNYIEYADSVKGRFTISRDNAKNSLDLQMNSLRAEDTAIYYCARDMYGLGSYYSPNYFDPWGQGTTVTVSS
VL: QSVLTQPPSVSGAPGQRVTISCTGSSSNIGAGYDVHWYQQLPGRAPKLLIFANTNRPSGVPDRFSGSKSGASASLAISGLQAEDEAHYYCQSYDRSLNVVFGGGTELTVLG
notes: IgG made in Expi293; also called #23; 23
B20: #27m (antibody, V domains shown)
VH: EVQLVESGGGLVKPGGSLRLSCAASGFTFTSYRMHWVRQAPGKGLEWVSSITGGGNYIEYADSVKGRFTISRDNAKNSLDLQMNSLRAEDTAIYYCARDMYGLGSYYSPNYFDSWGQGTLVTVSS
VL: QSVLTQPPSVSGAPGQRVTISCTGSSSNIGAGYDVHWYQQLPGAAPRLLMFGNSNRPSGVPDRFSGSKSGTSASLAITGLQAEDEADYYCQSYDSSLSYVFGTGTKVTVLG
notes: Germline-edited (m) form of 10A6, light chain edited; IgG; also called 10A6 (modified)
B21: 2F1 (antibody, V domains shown)
VH: EVQLVESGGGLVKPGGSLRLSCAASGFTFTSYRMHWVRQAPGKGLEWVSSITGGGNYIEYADSVKGRFTISRDNAKNSLDLQMNSLRAEDTAIYYCARDMYGLGSYYSPNYFDPWGQGTLVTVSS
VL: QSVLTQPPSVSGAPGQRVTISCTGSSSNIGAGYDVHWYQQVPGTAPKLLIFGSTNRPSGVPDRFSGSKSGASASLAITGLQTEDEADYYCQSYDRSLSAWVFGGGTKLTVLG
notes: IgG made in Expi293; also called #24; 24
B22: 2G11 (antibody, V domains shown)
VH: EVQLVESGGGLVQPGGSLRLSCAASGFTFTSYRMHWVRQAPGKGLEWVSSITGGGNYIEYADSVKGRFTISRDNAKNSLDLQMNSLRAEDTAIYYCARDMYGLGSYYSPNYFDPWGQGTLVTVSS
VL: QSVLTQPPSVSGAPGQRVTISCTGSSSNIGAGYDVHWYQQLPGAAPRLLMFGNSNRPSGVPDRFSGSKSGTSASLAITGLQAEDEADYYCQSYDSSLSYVFGTGTKVTVLG
notes: IgG made in Expi293; also called #29; 29
B23: 4G2 (antibody, V domains shown)
VH: EVQLVESGGGLVKPGGSLRLSCAASGFTFTSYRMHWVRQAPGKGLEWVSSITGGGNYIEYADSVKGRFTISRDNAKNSLDLQMNSLRAEDTAIYYCARDMYGLGSYYSPNYFDPWGQGTLVTVSS
VL: QSVLTQPPSVSGAPGQRVTISCTGSSSNIGAGYDVHWYQQLPGAAPRLLMFGNSNRPSGVPDRFSGSKSGTSASLAITGLQAEDEADYYCQSYDSSLSHVFGTGTKVTVLG
notes: IgG made in Expi293; also called #28; 28
B24: 10A6 (antibody, V domains shown)
VH: EVQLVESGGGLVKPGGSLRLSCAASGFTFTSYRMHWVRQAPGKGLEWVSSITGGGNYIEYADSVKGRFTISRDNAKNSLDLQMNSLRAEDTAIYYCARDMYGLGSYYSPNYFDSWGQGTLVTVSS
VL: SYELTQPPSVSGAPGQRVTISCTGSSSNIGAGYDVHWYQQLPGAAPRLLMFGNSNRPSGVPDRFSGSKSGTSASLAITGLQAEDEADYYCQSYDSSLSYVFGTGTKVTVLG
notes: IgG made in Expi293; also called #27; 27

The target in this test is DS-Cav1 (RSV F-protein, pre-form, in-house) (respiratory syncytial virus (RSV), UniProt P03420 26-513). Nature of the test: ELISA, coated DS-Cav1, IgG titrated. Background: In an ELISA, binding on a coated surface is turned into a signal by an enzyme label.
Chain of DS-Cav1 (RSV F-protein, pre-form, in-house) (P03420 26-524): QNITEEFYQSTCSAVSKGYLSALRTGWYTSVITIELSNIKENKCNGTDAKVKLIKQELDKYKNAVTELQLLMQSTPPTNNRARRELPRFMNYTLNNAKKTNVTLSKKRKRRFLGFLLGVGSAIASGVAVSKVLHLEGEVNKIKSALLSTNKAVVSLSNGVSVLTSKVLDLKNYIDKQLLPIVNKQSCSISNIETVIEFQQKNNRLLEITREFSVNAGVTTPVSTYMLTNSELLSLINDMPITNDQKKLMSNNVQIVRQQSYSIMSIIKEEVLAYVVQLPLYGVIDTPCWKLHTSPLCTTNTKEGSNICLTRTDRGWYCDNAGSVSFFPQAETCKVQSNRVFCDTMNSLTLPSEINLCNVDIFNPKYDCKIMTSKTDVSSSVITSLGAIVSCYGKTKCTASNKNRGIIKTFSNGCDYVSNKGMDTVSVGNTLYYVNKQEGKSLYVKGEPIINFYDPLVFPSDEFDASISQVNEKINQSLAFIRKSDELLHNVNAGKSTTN
In turn, B1 came in with a Kd of approximately 1.73 nM.

B2 returned a Kd of approximately 0.33 nM. With B3, the Kd was approximately 0.97 nM.

B4: the Kd is approximately 0.27 nM. As to B5, the Kd was approximately 0.23 nM. For B6 the value was approximately 0.34 nM. B7 returned a Kd of approximately 0.55 nM. In turn, B8 displayed a Kd of approximately 0.42 nM. B9 returned a Kd of approximately 1.16 nM. B10 returned a Kd of approximately 0.27 nM. B11 had a Kd of approximately 0.44 nM. In the case of B12, the Kd is approximately 2.11 nM. For the molecule B13, the Kd was approximately 0.39 nM. Turning to B14, the Kd was approximately 1.25 nM. Molecule B15 showed an equilibrium dissociation constant (Kd) of approximately 0.45 nM.

The molecule B16 displayed a Kd of approximately 1.23 nM. On to B17, for which the Kd is approximately 1.25 nM.

In turn, B18 returned a Kd of approximately 1.24 nM. For the molecule B19, the dissociation constant (Kd) is approximately 0.45 nM. On to B20, for which the Kd was approximately 1.41 nM.

As for B21, the Kd was approximately 0.66 nM. For B22 the value was approximately 0.85 nM; for B23, approximately 1.05 nM. On to B24, for which the Kd is approximately 1.56 nM.
